This note sets out measurements from paper PMC10752894, “Structural basis for DNA proofreading” (Nature Communications, 2023).

Series [1] deals with Polγ holoenzyme, cryo-EM Complex ONE (Homo sapiens, UniProt P54098;Q9UHN1 26-1239;26-485). Description: cryo-EM; Complex ONE class 1; EMSA: 40 mM Tris-HCl pH 7.9, 60 mM NaCl, 10 mM MgCl2, 5% glycerol, 20 mM 2-mercaptoethanol, 0.1 mg/ml BSA, 150 nM Cy3 scaffold, 10 min room temperature; 0.5% agarose, 0.5X TBE, 4 °C. The conditions noted are these: protein: recombinant; tags: N-terminal His (both subunits); copies: 1;2; primer-template, 6 nt 5' template overhang, 3'-terminal A mismatched with G. On the technique in general: Mobility shift assays separate free from complexed probe on a gel.
Chain of Polγ holoenzyme, cryo-EM Complex ONE (P54098 26-1239, one chain of several): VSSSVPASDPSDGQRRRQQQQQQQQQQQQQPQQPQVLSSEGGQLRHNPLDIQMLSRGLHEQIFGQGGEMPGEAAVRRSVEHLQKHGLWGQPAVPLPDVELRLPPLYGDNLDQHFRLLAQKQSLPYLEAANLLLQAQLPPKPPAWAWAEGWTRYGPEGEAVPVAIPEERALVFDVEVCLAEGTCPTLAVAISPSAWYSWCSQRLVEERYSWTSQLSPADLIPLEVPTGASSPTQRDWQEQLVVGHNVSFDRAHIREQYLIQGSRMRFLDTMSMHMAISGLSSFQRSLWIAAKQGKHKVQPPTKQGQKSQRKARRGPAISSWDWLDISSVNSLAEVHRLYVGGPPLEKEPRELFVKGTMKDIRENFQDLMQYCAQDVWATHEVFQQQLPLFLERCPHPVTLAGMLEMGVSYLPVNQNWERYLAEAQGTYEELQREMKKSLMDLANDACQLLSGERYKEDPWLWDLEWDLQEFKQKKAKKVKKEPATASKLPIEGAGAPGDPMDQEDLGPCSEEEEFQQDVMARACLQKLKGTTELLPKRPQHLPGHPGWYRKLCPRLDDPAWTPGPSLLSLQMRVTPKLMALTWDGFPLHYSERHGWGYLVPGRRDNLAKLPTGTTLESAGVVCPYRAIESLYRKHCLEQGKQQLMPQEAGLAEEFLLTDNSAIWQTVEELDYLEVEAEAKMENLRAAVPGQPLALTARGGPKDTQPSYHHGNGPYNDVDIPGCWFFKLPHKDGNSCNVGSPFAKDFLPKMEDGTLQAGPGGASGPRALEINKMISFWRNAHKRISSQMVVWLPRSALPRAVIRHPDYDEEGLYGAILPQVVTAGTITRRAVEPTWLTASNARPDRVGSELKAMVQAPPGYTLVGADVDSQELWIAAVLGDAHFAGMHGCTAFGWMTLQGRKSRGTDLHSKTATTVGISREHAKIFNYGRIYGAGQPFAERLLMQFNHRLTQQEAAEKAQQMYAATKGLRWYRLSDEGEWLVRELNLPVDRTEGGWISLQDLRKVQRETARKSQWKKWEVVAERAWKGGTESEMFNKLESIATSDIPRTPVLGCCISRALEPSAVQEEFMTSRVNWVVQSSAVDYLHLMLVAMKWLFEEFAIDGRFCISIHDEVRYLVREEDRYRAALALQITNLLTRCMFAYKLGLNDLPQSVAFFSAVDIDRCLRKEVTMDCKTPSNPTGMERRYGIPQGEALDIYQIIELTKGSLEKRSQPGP

Series [2] concerns the molecule itself. Description: cryo-EM structure; Complex ONE: 2 μM WT Polγ holoenzyme with the DNA20*A/DNA20_TS scaffold (phosphorothioate mismatched primer), 10 mM Tris-HCl pH 7.9, 100 mM NaCl, 10 mM DTT, 2 mM MgCl2. Complex THREE: the same with the hydrolyzable DNA20A primer. Gives Structures I, II, VII, VIII, IX.

B1: DNA20sA/DNA20TS (Complex ONE) (dsDNA)
DNA 1: GAAGACAGTCTGCGGCGCGA
DNA 2: ACACACGCGCGCCGCAGACTGTCTTC
modifications: phosphorothioate before the 3'-terminal A of the primer (racemic)
Consider B1, for which, in series [1], the binding result is “binds”.

B2: human mitochondrial DNA polymerase Gamma accessory subunit Polγ_B (residues 26–485) (natural protein, UniProt Q9UHN1 26-485, looked up)
chain: DAGQPELLTERSSPKGGHVKSHAELEGNGEHPEAPGSGEGSEALLEICQRRHFLSGSKQQLSRDSLLSGCHPGFGPLGVELRKNLAAEWWTSVVVFREQVFPVDALHHKPGPLLPGDSAFRLVSAETLREILQDKELSKEQLVAFLENVLKTSGKLRENLLHGALEHYVNCLDLVNKRLPYGLAQIGVCFHPVFDTKQIRNGVKSIGEKTEASLVWFTPPRTSNQWLDFWLRHRLQWWRKFAMSPSNFSSSDCQDEEGRKGNKLYYNFPWGKELIETLWNLGDHELLHMYPGNVSKLHGRDGRKNVVPCVLSVNGDLDRGMLAYLYDSFQLTENSFTRKKNLHRKVLKLHPCLAPIKVALDVGRGPTLELRQVCQGLFNELLENGISVWPGYLETMQSSLEQLYSKYDEMSILFTVLVTETTLENGLIHLRSRDTTMKEMMHISKLKDFLIKYISSAKNV
notes: human DNA polymerase gamma accessory subunit Polγ_B, residues 26-485; It is a homodimer in the holoenzyme, with a proximal copy Polγ_B1 and a distal copy Polγ_B2; also called Polγ_B homodimer; Polγ_B1; source: E. coli BL21-CodonPlus (DE3)-RIPL, purified (Ni-NTA, HiTrap heparin)
On to B2, for which the binding result in series [2] is listed as “binds”.
